Where a chain is given by its changes, count along the chain named.
Experiments:
Conditions in all cases: protein: recombinant; tags: MBP; label: 32P
MBP-SUV39H1 42-106 R55A [1] = biological target: T1, MBP-SUV39H1 42-106 R55A (Homo sapiens, UniProt O43463 42-106, R55A); test: EMSA; 20 mM Tris-HCl pH 7.4, 50 mM NaCl, 10% glycerol, ~4 U RNase inhibitor, room temperature 10 min; native gel 0.5X TBE at 25 C; filter binding on nitrocellulose in the same buffer
T1 sequence: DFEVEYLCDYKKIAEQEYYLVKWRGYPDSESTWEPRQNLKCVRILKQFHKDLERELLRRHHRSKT

MBP-SUV39H1 42-106 R84A [2] = biological target: T2, MBP-SUV39H1 42-106 R84A (Homo sapiens, UniProt O43463 42-106, R84A); test: as above
T2 sequence: T1 sequence with A14R, R43A

MBP-SUV39H1 42-106 R55A [3] = biological target: T1, MBP-SUV39H1 42-106 R55A; test: filter binding; 20 mM Tris-HCl pH 7.4, 50 mM NaCl, 10% glycerol, ~4 U RNase inhibitor, room temperature 10 min; native gel 0.5X TBE at 25 C; filter binding on nitrocellulose in the same buffer
MBP-SUV39H1 42-106 R84A [4] = biological target: T2, MBP-SUV39H1 42-106 R84A; test: as above

Measured: binding signal

AUAUGGGAACCACUGAUCC (ssRNA) [sense 19mer ssRNA]
> 40 fold lower affinity than WT: all assays above
